Test results as given in publication PMC12777564, “Proposal of metagenomic-origin LRA-5 as a precursor of active β-lactamases through Tyr69Gln and Val166Glu amino acid substitutions: a functional and structural analysis” (Antimicrobial Agents and Chemotherapy, 2025).

Assays:
[1] = test system: CO/N=C(\C(=O)N[C@@H]1C(=O)N2C(C(=O)[O-])=C(C[N+]3(C)CCCC3)CS[C@H]12)c1csc(N)n1; test: steady-state hydrolysis kinetics with pure enzyme (Km), no-enzyme control; assay type: biochemical, uncultured bacterium BLR5
Description: steady-state hydrolysis kinetics with pure enzyme (Km), no-enzyme control on LRA-5 | The exceptions were nitrocefin and, strikingly, cefepime.

[2] = test system: CC(=O)OCC1=C(C(=O)O)N2C(=O)[C@@H](NC(=O)Cc3cccs3)[C@H]2SC1; test: purified protein, by the assay type; parameters: steady-state beta-lactam hydrolysis kinetics with purified LRA-5; Km (apparent Km via nitrocefin competition for poor substrates); details: pH 7.5
Description: (§1) For low Km values, the kcat values were derived by complete hydrolysis time courses as described by De Meester et al. ([41]). For poor substrates that behave as competitive inhibitors, the Ki was obtained by monitoring the residual activity of the enzyme in the presence of various concentrations of the drug and 100 µM nitrocefin as reporter substrate; the corrected Ki (considered the observed or apparent Km) value was finally determined using equation 2: The kinetic parameters of wild-type LRA-5 and its double substituted variant LRA-5^Y69Q/V166E are shown in Table 3. […] This behavior is expected considering that this variant lacks Glu166, which is essential to orient the deacylation water molecule during the regeneration stage of the active site. The exceptions were nitrocefin and, strikingly, cefepime. This behavior deserves more in-depth analysis. […] Overnight cultures of recombinant E. coli BL21(DE3) cells expressing wild-type LRA-5 and LRA-5^Y69Q/V166E were diluted (1/50) in 500 mL Lysogeny Broth (LB) supplemented with 30 µg/mL kanamycin and grown at 37°C until 0.6–0.8 OD units (λ = 600 nm) was reached. At this point, 1 mM isopropyl β-D-thiogalactopyranoside (IPTG) was added, and cultures were resumed for growing overnight at 20°C (200 rpm stirring). Then, cell pellets were obtained after centrifugation at 8,000 rpm for 20 min (4°C) in a Sorvall RC-5C (GS3 rotor) and resuspended in 20 mM Tris buffer (pH 7.5) + 500 mM NaCl (buffer A). Crude extracts were obtained by ultrasonic disruption (9 cycles of 5 min, 40% potency, 20 pulses/min, on ice bath) and clarified by centrifugation at 10,000 rpm for 20 min (4°C, SS34 rotor). Clarified supernatants were filtrated through 0.45 µm pore-size membranes, and loaded onto 5 mL HisTrap HP affinity columns (GE Healthcare Life Sciences, USA), connected to an ÄKTA-purifier (GE Healthcare, Uppsala, Sweden), and equilibrated with buffer A. The column was extensively washed to remove unbound proteins, and the LRA-5 proteins were eluted using a linear gradient (0%–100%; 1 mL/min flow rate) of buffer B consisting of buffer A + 500 mM imidazole (pH 7.5). Eluted fractions were analyzed by SDS-PAGE in 15% polyacrylamide gels. Fractions containing the pure LRA-5 variants were dialyzed against buffer A, and the histidine tag was removed by thrombin digestion (16 h at 25°C), using 10 U thrombin per mg protein for complete proteolysis, and later by affinity purification using 1 mL HisTrap HP columns (GE Healthcare Life Sciences, USA), following the same conditions as before (the pure LRA-5 is recovered in the pass-through, while the His-tag and any uncleaved fractions remain attached to the column). The protein purity was assessed by Coomassie blue staining on 15% SDS polyacrylamide gels, and protein concentration was determined by UV absorbance at 280 nm and calculated according to the Lambert-Beer law. The fractions of purified enzymes were stored at −80°C for subsequent kinetics and crystallographic assays.

[3] = test system: CC1(C)S[C@@H]2[C@H](NC(=O)[C@H](N)c3ccccc3)C(=O)N2[C@H]1C(=O)O; test: purified protein, by the assay type; parameters: steady-state beta-lactam hydrolysis kinetics with purified LRA-5; Km (apparent Km via nitrocefin competition for poor substrates); details: pH 7.5
Description: as §1

[4] = test system: CO/N=C(\C(=O)N[C@@H]1C(=O)N2C(C(=O)O)=C(CSc3nc(=O)c(=O)[nH]n3C)CS[C@H]12)c1csc(N)n1; test: purified protein, by the assay type; parameters: steady-state beta-lactam hydrolysis kinetics with purified LRA-5; Km (apparent Km via nitrocefin competition for poor substrates); details: pH 7.5
Description: as §1

[5] = test system: C[C@H]1[C@H](NC(=O)/C(=N\OC(C)(C)C(=O)O)c2csc(N)n2)C(=O)N1S(=O)(=O)O; test: purified protein, by the assay type; parameters: steady-state beta-lactam hydrolysis kinetics with purified LRA-5; Km (apparent Km via nitrocefin competition for poor substrates); details: pH 7.5
Description: as §1

[6] = test system: O=C(Cc1cccs1)N[C@@H]1C(=O)N2C(C(=O)O)=C(/C=C/c3ccc([N+](=O)[O-])cc3[N+](=O)[O-])CS[C@H]12; test: purified protein, by the assay type; parameters: steady-state beta-lactam hydrolysis kinetics with purified LRA-5; Km (apparent Km via nitrocefin competition for poor substrates); details: pH 7.5
Description: as §1

[7] = test system: CC(=O)OCC1=C(C(=O)O)N2C(=O)[C@@H](NC(=O)Cc3cccs3)[C@H]2SC1; test: steady-state hydrolysis kinetics with pure enzyme (Km); assay type: biochemical, uncultured bacterium BLR5
[8] = test system: CC1(C)S[C@@H]2[C@H](NC(=O)[C@H](N)c3ccccc3)C(=O)N2[C@H]1C(=O)O; test: as above; assay type: biochemical, uncultured bacterium BLR5
[9] = test system: CO/N=C(\C(=O)N[C@@H]1C(=O)N2C(C(=O)O)=C(CSc3nc(=O)c(=O)[nH]n3C)CS[C@H]12)c1csc(N)n1; test: as above; assay type: biochemical, uncultured bacterium BLR5
[10] = test system: C[C@@H](O)[C@H]1C(=O)N2C(C(=O)O)=C(SCCN=CN)C[C@H]12; test: as above; assay type: biochemical, uncultured bacterium BLR5
[11] = test system: C[C@@H](O)[C@H]1C(=O)N2C(C(=O)O)=C(S[C@@H]3CN[C@H](C(=O)N(C)C)C3)[C@H](C)[C@H]12; test: as above; assay type: biochemical, uncultured bacterium BLR5
[12] = test system: O=C(Cc1cccs1)N[C@@H]1C(=O)N2C(C(=O)O)=C(/C=C/c3ccc([N+](=O)[O-])cc3[N+](=O)[O-])CS[C@H]12; test: as above; assay type: biochemical, uncultured bacterium BLR5
[13] = biological target: T1, LRA-5 (uncultured bacterium BLR5, UniProt B5L5W7); test: biochemical; parameters: time-dependent inactivation of purified LRA-5 by clavulanate, 100 uM nitrocefin as reporter substrate; details: wild-type LRA-5
T1 construct: gene blaLRA-5
Description: For irreversible inhibitors like clavulanic acid, the rate constant of inactivation, kinact, was measured directly by time-dependent inactivation of LRA-5 variants using a fixed concentration of enzyme and 100 µM nitrocefin as reporter and increasing concentrations of the inhibitor. The observed rate constant for inactivation (kobs) was determined by nonlinear least-squares fitting of the data using equation 3, as described elsewhere ([42]). […] This behavior is not entirely striking, as it may be related to the fact that the absence of Glu166 in the wild-type variant could still favor the inhibition of clavulanate, due to the absence of the water molecule that normally “competes” with inhibitors during acylation ([29]). Overnight cultures of recombinant E. coli BL21(DE3) cells expressing wild-type LRA-5 and LRA-5^Y69Q/V166E were diluted (1/50) in 500 mL Lysogeny Broth (LB) supplemented with 30 µg/mL kanamycin and grown at 37°C until 0.6–0.8 OD units (λ = 600 nm) was reached. […] Eluted fractions were analyzed by SDS-PAGE in 15% polyacrylamide gels. […] The protein purity was assessed by Coomassie blue staining on 15% SDS polyacrylamide gels, and protein concentration was determined by UV absorbance at 280 nm and calculated according to the Lambert-Beer law. […]

T1 sequence (B5L5W7 entry or part of it): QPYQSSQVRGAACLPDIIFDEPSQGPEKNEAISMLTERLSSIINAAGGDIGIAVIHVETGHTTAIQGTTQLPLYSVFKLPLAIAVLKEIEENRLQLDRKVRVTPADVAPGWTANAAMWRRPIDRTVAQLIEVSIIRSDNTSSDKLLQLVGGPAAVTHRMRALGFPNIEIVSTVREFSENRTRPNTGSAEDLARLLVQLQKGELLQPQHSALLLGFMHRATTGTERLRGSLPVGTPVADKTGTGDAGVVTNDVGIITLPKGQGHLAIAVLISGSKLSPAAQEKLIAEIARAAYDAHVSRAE

LRA-5 (uncultured bacterium BLR5)
Km [1]: 10.0 ± 0.5 µM | kcat [1]: 0.02 ± 0.006 s⁻¹ | kcat/Km [1]: 2000 ± 100 M⁻¹ s⁻¹ | Km [2]: 35 ± 4 µM | kcat [2]: 0.005 ± 0.0008 s⁻¹ | kcat/Km [2]: 143 ± 28 M⁻¹ s⁻¹ | Km [3]: 65 ± 13 µM | kcat [3]: 0.01 ± 0.002 s⁻¹ | kcat/Km [3]: 154 ± 44 M⁻¹ s⁻¹ | Km [4]: 11 ± 2 µM | kcat [4]: 3.6e-06 ± 6e-07 s⁻¹ | kcat/Km [4]: 0.32 ± 0.08 M⁻¹ s⁻¹ | kcat [5]: 2e-05 ± 3e-06 s⁻¹ | kcat/Km [5]: < 0.02 M⁻¹ s⁻¹ | Km [6]: 8 ± 2 µM | kcat [6]: 0.045 ± 0.001 s⁻¹ | kcat/Km [6]: 5600 ± 1400 M⁻¹ s⁻¹

LRA-5^Y69Q/V166E (uncultured bacterium BLR5; V199E/Y100Q)
Km [7]: 14 ± 3 µM | kcat [7]: 0.025 ± 0.001 s⁻¹ | kcat/Km [7]: 1780 ± 389 M⁻¹ s⁻¹ | Km [8]: 4.0 ± 0.2 µM | kcat [8]: 0.002 ± 0.0006 s⁻¹ | kcat/Km [8]: 500 ± 152 M⁻¹ s⁻¹ | Km [9]: 29 ± 9 µM | kcat [9]: 0.107 ± 0.01 s⁻¹ | kcat/Km [9]: 3690 ± 1200 M⁻¹ s⁻¹ | Km [10]: 3.0 ± 0.1 µM | kcat [10]: 0.006 ± 0.0002 s⁻¹ | kcat/Km [10]: 1920 ± 86 M⁻¹ s⁻¹ | Km [11]: 5.0 ± 0.6 µM | kcat [11]: 0.003 ± 0.0007 s⁻¹ | kcat/Km [11]: 600 ± 157 M⁻¹ s⁻¹ | Km [12]: 32 ± 4 µM | kcat [12]: 4.8 ± 0.3 s⁻¹ | kcat/Km [12]: 150000 ± 21000 M⁻¹ s⁻¹

O=C(O)[C@H]1/C(=C/CO)O[C@@H]2CC(=O)N21 [Clavulanate]
kinact ([13]; read-out: LRA-5 (wild-type) / kcat (s^−1) / NH / kinact): 0.005 ± 0.0001 s⁻¹ | kinact/KI ([13]; read-out: LRA-5 (wild-type) / kcat/Km (M^−1 s^−1) / ND / kinact/K): 833 ± 102 M⁻¹ s⁻¹
